Results: patent publication US20230227572A1 (HEFEI TG IMMUNOPHARMA, published 2023)

Assays:
[1] = molecular target: T1, recombinant human PVRIG-human IgG1 Fc fusion protein (human); test: flow cytometry blocking assay: antibody plus 10 µg/ml Fc fusion protein on 293T-human CD112 cells, AF647 anti-human IgG-Fc; y axis Human PVRIG-Fc fusion protein binding (%); blocked ligand: human CD112 on the cells
T1 construct: no linker is told; also called human PVRIG-Fc fusion protein
Method: The activity of murine antibodies from different clones in blocking the binding of the human PVRIG to its ligand CD112 was evaluated by flow cytometry. The experimental procedure was as follows:
The 293T-human CD112 cell line was harvested, and washed resuspended with 1×PBS to count the cells. […] The cell pellet was resuspended in 100 μl of 1×PBS, a AF647-labeled mouse anti-human IgG-Fc antibody (available from Biolegend) was added, the mixture was incubated at 4° C. for 30 min in the dark, followed by washing twice with 1×PBS and harvesting the cells by centrifugation at 3,500 rpm for 5 min. The cell pellet was resuspended with 200 ul of 1×PBS and measured using a flow cytometer (BD LSR II).

[2] = molecular target: T2, recombinant Macaca fascicularis PVRIG-human IgG1 Fc fusion protein (Macaca fascicularis; human); test: ELISA, plate coated with Macaca fascicularis PVRIG-human IgG1 Fc at 1.0 µg/ml, HRP goat anti-mouse IgG, OD450
T2 construct: Prepared 'in a similar manner' to the human PVRIG fusion
Method: The activity of the murine antibody in binding to the Macaca fascicularis PVRIG was evaluated by an ELISA method. The experimental procedure was as follows:
The recombinant Macaca fascicularis PVRIG-human IgG1 Fc fusion protein was diluted to 1.0 μg/ml in 1×PBS (phosphate buffer), the dilution was placed in a 96-well ELISA plate overnight at 4° C. by 100 μl/well, the plate was washed 3 times with PBST (0.05% Tween20-PBS) and blocked with 1% BSA, and the mixture was incubated for 2 h at 37° C. The plate was washed 3 times with PBST, and the murine antibody (Antibody 4) diluted in multiple ratios were respectively added to set 11 concentrations, and the mixture was incubated at 37° C. for 1 h using mouse IgG1 as a negative control at 100 μl/well. The plate was washed 3 times with PBST, 100 μl of horseradish peroxidase (HRP)-labeled goat anti-mouse IgG antibody (available from BOSTER, 1:10,000 dilution) was added to each well, and the mixture was incubated at 37° C. for 1 h. After washing, 100 μl of TMB substrate solution was added to each well for developing for 10 to 15 min in the dark, 100 μl of stop solution (2M H2SO4) was added to each well, the solution was measured with a microplate reader immediately after the reaction stopped, and the absorbance at 450 nm (OD450) was read. […]

[3] = molecular target: T3, human PVRIG protein on the cell membrane surface (human, UniProt Q6DKI7 41-326); test: flow cytometry on 293T-human PVRIG cells, AF647 goat anti-mouse IgG, percent positive cells
T3 construct: Also used here for the natural PVRIG on NKG cells and human lymphocytes; also called 293T-human PVRIG cell line; PVRIG on NKG cell line
T3 sequence: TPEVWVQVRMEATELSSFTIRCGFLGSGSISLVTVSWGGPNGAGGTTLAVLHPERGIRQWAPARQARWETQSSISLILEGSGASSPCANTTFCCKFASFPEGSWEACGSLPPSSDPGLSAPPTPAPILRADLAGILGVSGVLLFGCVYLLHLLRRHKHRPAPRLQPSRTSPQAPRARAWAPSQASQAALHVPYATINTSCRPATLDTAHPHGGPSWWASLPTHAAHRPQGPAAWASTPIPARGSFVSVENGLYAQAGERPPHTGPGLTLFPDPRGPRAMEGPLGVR
Method: The activity of murine antibodies from different clones in binding to human PVRIG protein on the cell membrane surface was evaluated by flow cytometry. The experimental procedure was as follows:
The 293T-human PVRIG cell line was harvested, washed with 1×PBS and resuspended, the cells were counted. Then […] were placed into each 1.5 ml Ep tube, the respective murine antibody (Antibody 1, Antibody 2, Antibody 3, or Antibody 4) was added at different concentrations, the mixture was incubated at 4° C. for 30 min, then washed with 1×PBS, and centrifuged at 3,500 rpm for 5 min to harvest the cells. The cell pellet was resuspended in 100 μl of 1×PBS, a AF647-labeled goat anti-mouse IgG antibody (available from Biolegend) was added, the mixture was incubated at 4° C. for 30 min in the dark, followed by washing twice with 1×PBS and harvesting the cells by centrifugation at 3,500 rpm for 5 min. The cell pellet was resuspended with 200 μl of 1×PBS and measured using a flow cytometer (BD LSR II).

[4] = molecular target: T1, recombinant human PVRIG-human IgG1 Fc …; test: SPR (Biacore), human PVRIG-human IgG1 Fc on chip, antibody in flow, 1:1 model
Method: The binding kinetics and dissociation equilibrium constant (KD) of the antibodies of the present disclosure to human PVRIG were determined using the surface plasmon resonance (Biacore) assay. Briefly, a CMS chip was coated with human PVRIG-human IgG1 Fc fusion protein, and after being blocked, antibody solutions of different concentrations passed through the CMS chip at a fixed flow rate and bound to antigen for 2 min, followed by transfer to dissociation buffer for 6 min for determination of the dissociation rate. The kinetics were analyzed using a 1:1 binding model.
Target sequence in this assay (chain, as listed by the source limits assumed): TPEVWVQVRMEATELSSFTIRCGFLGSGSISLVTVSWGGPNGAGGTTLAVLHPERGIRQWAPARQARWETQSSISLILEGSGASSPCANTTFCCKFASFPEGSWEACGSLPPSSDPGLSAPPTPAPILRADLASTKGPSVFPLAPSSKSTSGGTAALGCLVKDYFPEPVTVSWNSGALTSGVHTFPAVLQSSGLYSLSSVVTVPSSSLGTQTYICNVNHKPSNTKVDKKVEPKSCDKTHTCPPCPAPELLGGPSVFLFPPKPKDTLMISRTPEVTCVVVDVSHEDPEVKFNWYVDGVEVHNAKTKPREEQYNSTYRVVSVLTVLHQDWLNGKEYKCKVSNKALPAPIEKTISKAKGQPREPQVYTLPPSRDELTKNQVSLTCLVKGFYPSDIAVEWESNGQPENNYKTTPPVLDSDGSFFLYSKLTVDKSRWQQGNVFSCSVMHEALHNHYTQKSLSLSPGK

[5] = molecular target: T1, recombinant human PVRIG-human IgG1 Fc …; test: ELISA, plate coated with human PVRIG-human IgG1 Fc at 1.0 µg/ml, HRP goat anti-mouse IgG, OD450
Method: The activity of the murine antibodies from different clones in binding to the human PVRIG-Fc fusion protein was evaluated by ELISA. The experimental procedure was as follows:
The recombinant human PVRIG-human IgG1 Fc fusion protein was diluted to 1.0 μg/ml in 1×PBS (phosphate buffer), the dilution was plated onto a 96-well ELISA plate overnight at 4° C. by 100 μl/well, the plate was washed 3 times with PBST (0.05% Tween20-PBS) and blocked with 1% BSA, followed by incubation at 37° C. for 2 h. The plate was washed 3 times with PBST, and murine antibodies (Antibody 1, Antibody 2, Antibody 3, or Antibody 4) diluted in multiple ratios were respectively added to set 8 concentrations, and the mixture was incubated at 37° C. for 1 h using mouse IgG1 (available from Biolegend) as a negative control at 100 μl/well. The plate was washed 3 times with PBST, and 100 μl of horseradish peroxidase (HRP)-labeled goat anti-mouse IgG antibody (available from BOSTER, 1:10,000 dilution) was added to each well, and the mixture was incubated at 37° C. for 1 h. After washing, 100 μl of TMB substrate solution was added to each well for developing for 10 to 15 min in the dark, 100 μl of stop solution (2M H2SO4) was added to each well, the solution was measured with a microplate reader immediately after the reaction stopped, and the absorbance at 450 nm (OD450) was read.

T2 sequence (chain, as listed by the source limits assumed): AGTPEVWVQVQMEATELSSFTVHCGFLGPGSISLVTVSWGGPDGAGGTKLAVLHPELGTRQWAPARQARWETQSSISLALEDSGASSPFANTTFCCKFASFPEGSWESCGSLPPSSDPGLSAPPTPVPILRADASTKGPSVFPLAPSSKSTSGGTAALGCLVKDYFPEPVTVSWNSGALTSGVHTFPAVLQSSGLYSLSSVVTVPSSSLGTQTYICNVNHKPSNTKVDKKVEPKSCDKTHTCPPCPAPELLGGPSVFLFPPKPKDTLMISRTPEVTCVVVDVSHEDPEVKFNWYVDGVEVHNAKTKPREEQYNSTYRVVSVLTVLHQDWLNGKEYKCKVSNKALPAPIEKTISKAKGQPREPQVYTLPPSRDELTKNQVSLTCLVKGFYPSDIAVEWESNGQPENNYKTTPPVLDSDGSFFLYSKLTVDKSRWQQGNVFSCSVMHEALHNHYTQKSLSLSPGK

IC50 (read off the curve) [1]: ~3 mg/L
EC50 (read off the curve) [2]: ~0.04 mg/L
EC50 (read off the curve) [3]: ~0.01 mg/L
Kd [4]: ≤ 4.1 pM
koff [4]: ≤ 1e-06 s⁻¹
kon [4]: 244000 M⁻¹ s⁻¹
EC50 (read off the curve) [5]: ~0.02 mg/L
B1: Antibody 4 (antibody, V domains shown)
VH: QVQLQQSGAELVKPGASVKISCKATGYTFSSFSIEWVKQRPGHGLAWIGEILPGSNSTNYNEKFKGKATFTADTSSNTAYMQLSSLTSEDSAVYYCSSYWFAYWGQGTLVTVSA
VL: DIVMTQSPSSLSVSAGEKVTMSCKSSQSLLNSGNQKNYLAWYQQKPGQPPKLLIYGASTRESGVPDRFTGSGSGTDFTLTISSVQAEDLAVYYCQNAHSYPPTFAAGTKLELK
notes: Murine monoclonal antibody from hybridoma ascites; Used AF647-labelled in several flow cytometry assays; also called murine antibody (Antibody 4); murine Antibody 4
